# According to patent publication US20210388087A1 (Chugai, published 2021):
# Biological target: T1, Human CD137 ECD (human)
# T1 construct: also called 4-1BB
# Test: SPR, vs parent H183/L072
# T1 sequence (chain, as listed by the source limits assumed): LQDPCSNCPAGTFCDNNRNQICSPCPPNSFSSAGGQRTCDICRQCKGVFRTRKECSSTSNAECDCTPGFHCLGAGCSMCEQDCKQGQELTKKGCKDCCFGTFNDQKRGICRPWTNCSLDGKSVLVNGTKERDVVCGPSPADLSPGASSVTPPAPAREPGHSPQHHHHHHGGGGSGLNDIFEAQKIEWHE
row,Binder,fold change of affinity [fold]
1,"dBBDu183H P100eQ / dBBDu072L (antibody, name in Kabat numbering, V domains shown, as m1, one VH change) VH: QVQLVESGGGLVQPGRSLRLSCAASGFTFSNAWMHWVRQAPGKGLEWVAQIKDKGNAYAAYYAPSVKGRFTISRDDSKNSIYLQMNSLKTEDTAVYYCHYVHYASASTVLQAFGVDAWGQGTTVTVSS VL: DIVMTQSPLSLPVTPGEPASISCQASQELVHMNRNTYLHWYQQKPGQAPRLLIYKVSNRFPGVPDRFSGSGSGTDFTLKISRVEAEDVGVYYCAQGTSVPFTFGQGTKLEIK",0.4
2,"dBBDu183H P100eR / dBBDu072L (antibody, name in Kabat numbering, V domains shown, as m1, one VH change) VH: QVQLVESGGGLVQPGRSLRLSCAASGFTFSNAWMHWVRQAPGKGLEWVAQIKDKGNAYAAYYAPSVKGRFTISRDDSKNSIYLQMNSLKTEDTAVYYCHYVHYASASTVLRAFGVDAWGQGTTVTVSS VL: DIVMTQSPLSLPVTPGEPASISCQASQELVHMNRNTYLHWYQQKPGQAPRLLIYKVSNRFPGVPDRFSGSGSGTDFTLKISRVEAEDVGVYYCAQGTSVPFTFGQGTKLEIK",0.3
3,"dBBDu183H S62F / dBBDu072L (antibody, name in Kabat numbering, V domains shown, as m1, one VH change) VH: QVQLVESGGGLVQPGRSLRLSCAASGFTFSNAWMHWVRQAPGKGLEWVAQIKDKGNAYAAYYAPFVKGRFTISRDDSKNSIYLQMNSLKTEDTAVYYCHYVHYASASTVLPAFGVDAWGQGTTVTVSS VL: DIVMTQSPLSLPVTPGEPASISCQASQELVHMNRNTYLHWYQQKPGQAPRLLIYKVSNRFPGVPDRFSGSGSGTDFTLKISRVEAEDVGVYYCAQGTSVPFTFGQGTKLEIK",0.5
4,"dBBDu183H S62H / dBBDu072L (antibody, name in Kabat numbering, V domains shown, as m1, one VH change) VH: QVQLVESGGGLVQPGRSLRLSCAASGFTFSNAWMHWVRQAPGKGLEWVAQIKDKGNAYAAYYAPHVKGRFTISRDDSKNSIYLQMNSLKTEDTAVYYCHYVHYASASTVLPAFGVDAWGQGTTVTVSS VL: DIVMTQSPLSLPVTPGEPASISCQASQELVHMNRNTYLHWYQQKPGQAPRLLIYKVSNRFPGVPDRFSGSGSGTDFTLKISRVEAEDVGVYYCAQGTSVPFTFGQGTKLEIK",0.9
5,"dBBDu183H S62E / dBBDu072L (antibody, name in Kabat numbering, V domains shown, as m1, one VH change) VH: QVQLVESGGGLVQPGRSLRLSCAASGFTFSNAWMHWVRQAPGKGLEWVAQIKDKGNAYAAYYAPEVKGRFTISRDDSKNSIYLQMNSLKTEDTAVYYCHYVHYASASTVLPAFGVDAWGQGTTVTVSS VL: DIVMTQSPLSLPVTPGEPASISCQASQELVHMNRNTYLHWYQQKPGQAPRLLIYKVSNRFPGVPDRFSGSGSGTDFTLKISRVEAEDVGVYYCAQGTSVPFTFGQGTKLEIK",0.8
6,"dBBDu183H S62G / dBBDu072L (antibody, name in Kabat numbering, V domains shown, as m1, one VH change) VH: QVQLVESGGGLVQPGRSLRLSCAASGFTFSNAWMHWVRQAPGKGLEWVAQIKDKGNAYAAYYAPGVKGRFTISRDDSKNSIYLQMNSLKTEDTAVYYCHYVHYASASTVLPAFGVDAWGQGTTVTVSS VL: DIVMTQSPLSLPVTPGEPASISCQASQELVHMNRNTYLHWYQQKPGQAPRLLIYKVSNRFPGVPDRFSGSGSGTDFTLKISRVEAEDVGVYYCAQGTSVPFTFGQGTKLEIK",1
7,"dBBDu183H P100eS / dBBDu072L (antibody, name in Kabat numbering, V domains shown, as m1, one VH change) VH: QVQLVESGGGLVQPGRSLRLSCAASGFTFSNAWMHWVRQAPGKGLEWVAQIKDKGNAYAAYYAPSVKGRFTISRDDSKNSIYLQMNSLKTEDTAVYYCHYVHYASASTVLSAFGVDAWGQGTTVTVSS VL: DIVMTQSPLSLPVTPGEPASISCQASQELVHMNRNTYLHWYQQKPGQAPRLLIYKVSNRFPGVPDRFSGSGSGTDFTLKISRVEAEDVGVYYCAQGTSVPFTFGQGTKLEIK",0.4
8,"dBBDu183H S62D / dBBDu072L (antibody, name in Kabat numbering, V domains shown, as m1, one VH change) VH: QVQLVESGGGLVQPGRSLRLSCAASGFTFSNAWMHWVRQAPGKGLEWVAQIKDKGNAYAAYYAPDVKGRFTISRDDSKNSIYLQMNSLKTEDTAVYYCHYVHYASASTVLPAFGVDAWGQGTTVTVSS VL: DIVMTQSPLSLPVTPGEPASISCQASQELVHMNRNTYLHWYQQKPGQAPRLLIYKVSNRFPGVPDRFSGSGSGTDFTLKISRVEAEDVGVYYCAQGTSVPFTFGQGTKLEIK",0.9
9,"dBBDu183H P100eT / dBBDu072L (antibody, name in Kabat numbering, V domains shown, as m1, one VH change) VH: QVQLVESGGGLVQPGRSLRLSCAASGFTFSNAWMHWVRQAPGKGLEWVAQIKDKGNAYAAYYAPSVKGRFTISRDDSKNSIYLQMNSLKTEDTAVYYCHYVHYASASTVLTAFGVDAWGQGTTVTVSS VL: DIVMTQSPLSLPVTPGEPASISCQASQELVHMNRNTYLHWYQQKPGQAPRLLIYKVSNRFPGVPDRFSGSGSGTDFTLKISRVEAEDVGVYYCAQGTSVPFTFGQGTKLEIK",0.2

# Continued, values first:
row,fold change of affinity [fold],Binder
1,1,"dBBDu183H S99G / dBBDu072L (antibody, name in Kabat numbering, V domains shown, as m1, one VH change) VH: QVQLVESGGGLVQPGRSLRLSCAASGFTFSNAWMHWVRQAPGKGLEWVAQIKDKGNAYAAYYAPSVKGRFTISRDDSKNSIYLQMNSLKTEDTAVYYCHYVHYAGASTVLPAFGVDAWGQGTTVTVSS VL: DIVMTQSPLSLPVTPGEPASISCQASQELVHMNRNTYLHWYQQKPGQAPRLLIYKVSNRFPGVPDRFSGSGSGTDFTLKISRVEAEDVGVYYCAQGTSVPFTFGQGTKLEIK"
2,1.1,"dBBDu183H S62R / dBBDu072L (antibody, name in Kabat numbering, V domains shown, as m1, one VH change) VH: QVQLVESGGGLVQPGRSLRLSCAASGFTFSNAWMHWVRQAPGKGLEWVAQIKDKGNAYAAYYAPRVKGRFTISRDDSKNSIYLQMNSLKTEDTAVYYCHYVHYASASTVLPAFGVDAWGQGTTVTVSS VL: DIVMTQSPLSLPVTPGEPASISCQASQELVHMNRNTYLHWYQQKPGQAPRLLIYKVSNRFPGVPDRFSGSGSGTDFTLKISRVEAEDVGVYYCAQGTSVPFTFGQGTKLEIK"
3,1.2,"dBBDu183H S99K / dBBDu072L (antibody, name in Kabat numbering, V domains shown, as m1, one VH change) VH: QVQLVESGGGLVQPGRSLRLSCAASGFTFSNAWMHWVRQAPGKGLEWVAQIKDKGNAYAAYYAPSVKGRFTISRDDSKNSIYLQMNSLKTEDTAVYYCHYVHYAKASTVLPAFGVDAWGQGTTVTVSS VL: DIVMTQSPLSLPVTPGEPASISCQASQELVHMNRNTYLHWYQQKPGQAPRLLIYKVSNRFPGVPDRFSGSGSGTDFTLKISRVEAEDVGVYYCAQGTSVPFTFGQGTKLEIK"
4,1,"dBBDu183H S62Q / dBBDu072L (antibody, name in Kabat numbering, V domains shown, as m1, one VH change) VH: QVQLVESGGGLVQPGRSLRLSCAASGFTFSNAWMHWVRQAPGKGLEWVAQIKDKGNAYAAYYAPQVKGRFTISRDDSKNSIYLQMNSLKTEDTAVYYCHYVHYASASTVLPAFGVDAWGQGTTVTVSS VL: DIVMTQSPLSLPVTPGEPASISCQASQELVHMNRNTYLHWYQQKPGQAPRLLIYKVSNRFPGVPDRFSGSGSGTDFTLKISRVEAEDVGVYYCAQGTSVPFTFGQGTKLEIK"
5,1,"dBBDu183H S62T / dBBDu072L (antibody, name in Kabat numbering, V domains shown, as m1, one VH change) VH: QVQLVESGGGLVQPGRSLRLSCAASGFTFSNAWMHWVRQAPGKGLEWVAQIKDKGNAYAAYYAPTVKGRFTISRDDSKNSIYLQMNSLKTEDTAVYYCHYVHYASASTVLPAFGVDAWGQGTTVTVSS VL: DIVMTQSPLSLPVTPGEPASISCQASQELVHMNRNTYLHWYQQKPGQAPRLLIYKVSNRFPGVPDRFSGSGSGTDFTLKISRVEAEDVGVYYCAQGTSVPFTFGQGTKLEIK"
6,0.7,"dBBDu183H S62Y / dBBDu072L (antibody, name in Kabat numbering, V domains shown, as m1, one VH change) VH: QVQLVESGGGLVQPGRSLRLSCAASGFTFSNAWMHWVRQAPGKGLEWVAQIKDKGNAYAAYYAPYVKGRFTISRDDSKNSIYLQMNSLKTEDTAVYYCHYVHYASASTVLPAFGVDAWGQGTTVTVSS VL: DIVMTQSPLSLPVTPGEPASISCQASQELVHMNRNTYLHWYQQKPGQAPRLLIYKVSNRFPGVPDRFSGSGSGTDFTLKISRVEAEDVGVYYCAQGTSVPFTFGQGTKLEIK"
7,1.5,"dBBDu183H S99H / dBBDu072L (antibody, name in Kabat numbering, V domains shown, as m1, one VH change) VH: QVQLVESGGGLVQPGRSLRLSCAASGFTFSNAWMHWVRQAPGKGLEWVAQIKDKGNAYAAYYAPSVKGRFTISRDDSKNSIYLQMNSLKTEDTAVYYCHYVHYAHASTVLPAFGVDAWGQGTTVTVSS VL: DIVMTQSPLSLPVTPGEPASISCQASQELVHMNRNTYLHWYQQKPGQAPRLLIYKVSNRFPGVPDRFSGSGSGTDFTLKISRVEAEDVGVYYCAQGTSVPFTFGQGTKLEIK"
8,0.9,"dBBDu183H S62K / dBBDu072L (antibody, name in Kabat numbering, V domains shown, as m1, one VH change) VH: QVQLVESGGGLVQPGRSLRLSCAASGFTFSNAWMHWVRQAPGKGLEWVAQIKDKGNAYAAYYAPKVKGRFTISRDDSKNSIYLQMNSLKTEDTAVYYCHYVHYASASTVLPAFGVDAWGQGTTVTVSS VL: DIVMTQSPLSLPVTPGEPASISCQASQELVHMNRNTYLHWYQQKPGQAPRLLIYKVSNRFPGVPDRFSGSGSGTDFTLKISRVEAEDVGVYYCAQGTSVPFTFGQGTKLEIK"
9,0.8,"dBBDu183H S62W / dBBDu072L (antibody, name in Kabat numbering, V domains shown, as m1, one VH change) VH: QVQLVESGGGLVQPGRSLRLSCAASGFTFSNAWMHWVRQAPGKGLEWVAQIKDKGNAYAAYYAPWVKGRFTISRDDSKNSIYLQMNSLKTEDTAVYYCHYVHYASASTVLPAFGVDAWGQGTTVTVSS VL: DIVMTQSPLSLPVTPGEPASISCQASQELVHMNRNTYLHWYQQKPGQAPRLLIYKVSNRFPGVPDRFSGSGSGTDFTLKISRVEAEDVGVYYCAQGTSVPFTFGQGTKLEIK"
10,0.9,"dBBDu183H S62V / dBBDu072L (antibody, name in Kabat numbering, V domains shown, as m1, one VH change) VH: QVQLVESGGGLVQPGRSLRLSCAASGFTFSNAWMHWVRQAPGKGLEWVAQIKDKGNAYAAYYAPVVKGRFTISRDDSKNSIYLQMNSLKTEDTAVYYCHYVHYASASTVLPAFGVDAWGQGTTVTVSS VL: DIVMTQSPLSLPVTPGEPASISCQASQELVHMNRNTYLHWYQQKPGQAPRLLIYKVSNRFPGVPDRFSGSGSGTDFTLKISRVEAEDVGVYYCAQGTSVPFTFGQGTKLEIK"
11,0.9,"dBBDu183H S62N / dBBDu072L (antibody, name in Kabat numbering, V domains shown, as m1, one VH change) VH: QVQLVESGGGLVQPGRSLRLSCAASGFTFSNAWMHWVRQAPGKGLEWVAQIKDKGNAYAAYYAPNVKGRFTISRDDSKNSIYLQMNSLKTEDTAVYYCHYVHYASASTVLPAFGVDAWGQGTTVTVSS VL: DIVMTQSPLSLPVTPGEPASISCQASQELVHMNRNTYLHWYQQKPGQAPRLLIYKVSNRFPGVPDRFSGSGSGTDFTLKISRVEAEDVGVYYCAQGTSVPFTFGQGTKLEIK"
12,0.6,"dBBDu183H S99Q / dBBDu072L (antibody, name in Kabat numbering, V domains shown, as m1, one VH change) VH: QVQLVESGGGLVQPGRSLRLSCAASGFTFSNAWMHWVRQAPGKGLEWVAQIKDKGNAYAAYYAPSVKGRFTISRDDSKNSIYLQMNSLKTEDTAVYYCHYVHYAQASTVLPAFGVDAWGQGTTVTVSS VL: DIVMTQSPLSLPVTPGEPASISCQASQELVHMNRNTYLHWYQQKPGQAPRLLIYKVSNRFPGVPDRFSGSGSGTDFTLKISRVEAEDVGVYYCAQGTSVPFTFGQGTKLEIK"
